Measured values: patent US11306156
Where “and” joins values, the source holds several entries; their conditions need not be identical. Identical values can stand only once.

Columns and labels:
[1] = target: D3H44 light chain Q124R, N-terminal HA or FLAG tag; test: LCCA, L1:L2 DNA 1:3, SPR of light chain tags; competing light chain m18
[2] = target: D3H44 light chain Q124E_V133E, N-terminal HA or FLAG tag; test: LCCA, L1:L2 DNA 1:9, SPR of light chain tags; competing light chain m17
[3] = target: D3H44 light chain Q124R, N-terminal HA or FLAG tag; test: LCCA, L1:L2 DNA 1:9, SPR of light chain tags; competing light chain m18
[4] = target: D3H44 light chain Q124R_Q160K_T178R, N-terminal HA or FLAG tag; test: LCCA, L1:L2 DNA 1:3, SPR of light chain tags; competing light chain m13
[5] = target: D3H44 light chain Q124E_T180E, N-terminal HA or FLAG tag; test: LCCA, L1:L2 DNA 1:3, SPR of light chain tags; competing light chain m14
[6] = target: D3H44 light chain Q124E_Q160E_T178E, N-terminal HA or FLAG tag; test: as above
[7] = target: D3H44 light chain Q124E_V133E, N-terminal HA or FLAG tag; test: LCCA, L1:L2 DNA 1:3, SPR of light chain tags; competing light chain m17
[8] = target: D3H44 light chain Q124R_Q160K_T178R, N-terminal HA or FLAG tag; test: LCCA, L1:L2 DNA 1:3, SPR of light chain tags; competing light chain m20
[9] = target: D3H44 light chain Q124E_Q160E_T180E, N-terminal HA or FLAG tag; test: LCCA, L1:L2 DNA 1:9, SPR of light chain tags; competing light chain m12
[10] = target: D3H44 light chain Q124R_T178R, N-terminal HA or FLAG tag; test: LCCA, L1:L2 DNA 1:3, SPR of light chain tags; competing light chain m11
[11] = target: D3H44 light chain Q124R_T178K, N-terminal HA or FLAG tag; test: as above
[12] = target: D3H44 light chain Q124K_T178R, N-terminal HA or FLAG tag; test: as above
[13] = target: D3H44 light chain Q124E_T180E, N-terminal HA or FLAG tag; test: LCCA, L1:L2 DNA 1:3, SPR of light chain tags; competing light chain m12
[14] = target: D3H44 light chain Q124E_Q160E_T180E, N-terminal HA or FLAG tag; test: as above
[15] = target: D3H44 light chain Q124R_T178R, N-terminal HA or FLAG tag; test: LCCA, L1:L2 DNA 1:3, SPR of light chain tags; competing light chain m13
[16] = target: D3H44 light chain T178R, N-terminal HA or FLAG tag; test: as above
[17] = target: D3H44 light chain Q124R_T178R, N-terminal HA or FLAG tag; test: LCCA, L1:L2 DNA 1:9, SPR of light chain tags; competing light chain m11
[18] = target: D3H44 light chain Q124R_T178K, N-terminal HA or FLAG tag; test: as above
[19] = target: D3H44 light chain Q124K_T178R, N-terminal HA or FLAG tag; test: as above
[20] = target: D3H44 light chain Q124E_Q160E_T180E, N-terminal HA or FLAG tag; test: LCCA, L1:L2 DNA 1:3, SPR of light chain tags; competing light chain m15
[21] = target: D3H44 light chain Q124E_Q160E_T180E, N-terminal HA or FLAG tag; test: LCCA, L1:L2 DNA 1:9, SPR of light chain tags; competing light chain m16
[22] = target: D3H44 light chain Q124E_Q160E_T180E, N-terminal HA or FLAG tag; test: LCCA, L1:L2 DNA 1:9, SPR of light chain tags; competing light chain m15
[23] = target: D3H44 light chain Q124E_T180E, N-terminal HA or FLAG tag; test: LCCA, L1:L2 DNA 1:3, SPR of light chain tags; competing light chain m10
[24] = target: D3H44 light chain Q124E_Q160E_T180E, N-terminal HA or FLAG tag; test: LCCA, L1:L2 DNA 1:3, SPR of light chain tags; competing light chain m16
[25] = target: D3H44 light chain Q124K_T178R, N-terminal HA or FLAG tag; test: LCCA, L1:L2 DNA 1:3, SPR of light chain tags; competing light chain m13
[26] = target: D3H44 light chain Q124E_T180E, N-terminal HA or FLAG tag; test: LCCA, L1:L2 DNA 1:3, SPR of light chain tags; competing light chain m15

Row | H1L1:H1L2 normalized median ratio [4] | H1L1:H1L2 normalized median scalar value ln(r1/f1) [4] | H1L1:H1L2 normalized median ratio [5] | H1L1:H1L2 normalized median ratio [9] | H1L1:H1L2 normalized median ratio [10] | H1L1:H1L2 normalized median scalar value ln(r1/f1) [10] | H1L1:H1L2 normalized median ratio [11] | H1L1:H1L2 normalized median scalar value ln(r1/f1) [11] | H1L1:H1L2 normalized median ratio [14] | H1L1:H1L2 normalized median ratio [16] | H1L1:H1L2 normalized median scalar value ln(r1/f1) [16] | H1L1:H1L2 normalized median ratio [17] | H1L1:H1L2 normalized median scalar value ln(r1/f1) [17] | H1L1:H1L2 normalized median ratio [23] | H1L1:H1L2 normalized median ratio [24] | Substance | further results
1 | 59 share of 100 | 0.33 and 0.38 | 41 share of 100 | – | – | – | – | – | – | – | – | – | – | – | – | D3H44 Fab heavy chain L143E_K145T, C-terminal ABD2-His6 tag | H1L1:H1L2 normalized median ratio [1]: 91 share of 100; H1L1:H1L2 normalized median scalar value ln(r1/f1) [1]: 2.37; H1L1:H1L2 normalized median ratio [2]: 12 share of 100; H1L1:H1L2 normalized median ratio [3]: 88 share of 100; H1L1:H1L2 normalized median scalar value ln(r1/f1) [3]: 1.95; H1L1:H1L2 normalized median ratio [6]: 41 share of 100; H1L1:H1L2 normalized median ratio [7]: 9 share of 100; H1L1:H1L2 normalized median ratio [8]: 59 share of 100; H1L1:H1L2 normalized median scalar value ln(r1/f1) [8]: 0.37
2 | 69 share of 100 | 0.79 | 31 share of 100 | 18 share of 100 | 87 share of 100 | 1.9 | 89 share of 100 | 2.08 and 2.03 | 13 share of 100 | 65 share of 100 | 0.64 | 82 share of 100 | 1.55 | 35 share of 100 | 11 share of 100 | D3H44 Fab heavy chain L143E_K145T_Q179D, C-terminal ABD2-His6 tag | H1L1:H1L2 normalized median ratio [12]: 86 share of 100; H1L1:H1L2 normalized median scalar value ln(r1/f1) [12]: 1.78; H1L1:H1L2 normalized median ratio [13]: 24 share of 100; H1L1:H1L2 normalized median ratio [15]: 76 share of 100; H1L1:H1L2 normalized median scalar value ln(r1/f1) [15]: 1.14; H1L1:H1L2 normalized median ratio [18]: 78 share of 100; H1L1:H1L2 normalized median scalar value ln(r1/f1) [18]: 1.28; H1L1:H1L2 normalized median ratio [19]: 86 share of 100; H1L1:H1L2 normalized median scalar value ln(r1/f1) [19]: 1.84; H1L1:H1L2 normalized median ratio [20]: 14 share of 100; H1L1:H1L2 normalized median ratio [21]: 22 share of 100; H1L1:H1L2 normalized median ratio [22]: 14 share of 100
3 | 73 share of 100 | 1 | 27 share of 100 | 22 share of 100 | 91 share of 100 | 2.27 | 83 share of 100 and 33 share of 100 | 1.62 | 9 share of 100 | 60 share of 100 | 0.41 | 78 share of 100 | 1.29 | 40 share of 100 | 17 share of 100 | D3H44 Fab heavy chain L143E_K145T_Q179E, C-terminal ABD2-His6 tag | H1L1:H1L2 normalized median ratio [25]: 70 share of 100; H1L1:H1L2 normalized median scalar value ln(r1/f1) [25]: 0.84; H1L1:H1L2 normalized median ratio [26]: 30 share of 100
